Measured values reported in PMC12052392 (PLOS Pathogens, 2025).

Biological target: SARS-CoV-2 S2 (T1076-Q1208) antigen, trimeric S2 fusion-core-based antigen (SARS-CoV-2 prototype (MN908947.3), UniProt P0DTC2, biotin (Biotinylation Kit))
Test: BLI
Settings: both partners purified

B1: anti-SH neutralizing antibody CV3-25 (antibody, V domains shown)
VH: EVQLVESGAEVKKPGESLKISCKGSGYTFTRYWIGWVRQMPGKGLEWMGIIYPGDSDTRYSPSFQGHVTISADKSISTAYLQWNSLKASDTAMYYCARLPQYCSNGVCQRWFDPWGQGTLVTVSS
VL: EIVLTQSPSSVSASVGDRVTITCRASQGISSWLAWYQQKPGKAPKLLIYAASSLQSGVPSRFSGSGSGTDFTLTISSLQPEDFATYYCQQGNSFPYTFGQGTNLEIK
binding result: binds
